Among the data in publication PMC6048717 are elongation rate constant k+ (monomer addition to AS(WT) seed fibril ends) values, retold here.

The test deals with α-synuclein wild-type (UniProt P37840). Nature of the test: seeded fibril elongation kinetics.

The substance “α-synuclein C-terminally truncated variant AS(1-119) (from UniProt P37840 1-119) (domain or fragment)” came in with an elongation rate constant k+ (monomer addition to AS(WT) seed fibril ends) of 2780 M⁻¹ s⁻¹.
